In PMC12805836:
Several values for one entry are separate records, joined by “and”; a condition that tells them apart may be missing. Equal entries are not always repeated.

Columns and labels:
[1] = molecular target: actinorhodopsin (ActR, ActRL06) from Nanopelagicus ca., produced in E. coli (Nanopelagicus ca.); experiment: SEC; analytical size-exclusion chromatography of ActR at the neutral pH of the scramblase assays
[2] = molecular target: actinorhodopsin (ActR, ActRL06) from Nanopelagicus ca., produced in E. coli (Nanopelagicus ca.); experiment: negative stain electron microscopy; ActR from E. coli, purified through the metal affinity step, in elution buffer with DDM, pH 7.4, 8-240 ug/mL on grids, 2% uranyl acetate; preliminary single particle analysis
[3] = molecular target: actinorhodopsin (ActR, ActRL06) from Nanopelagicus ca., produced in E. coli (Nanopelagicus ca.); experiment: SEC; analytical size-exclusion chromatography of ActR at low pH

stoichiometry N [1]: 5 and 3
stoichiometry N [2]: 5
stoichiometry N [3]: 3
Substance: actinorhodopsin (ActR, ActRL06) from Nanopelagicus ca., produced in E. coli (natural protein)
